Assay results as given in PMC11940065, “Conformational Analyses of the AHD1-UBAN Region of TNIP1 Highlight Key Amino Acids for Interaction with Ubiquitin” (Biomolecules, 2025).
Residue numbers refer to the chain shown, from its start. Numbers in names are those of the source.

B1: WT AHD1-UBAN (TNIP1 417-509) (domain or fragment, human, UniProt Q15025 417-509, looked up)
chain: QRLNKALEEALSIQTPPSSPPTAFGSPEGAGALLRKQELVTQNELLKQQVKIFEEDFQRERSDRERMNEEKEELKKQVEKLQAQVTLSNAQLK
notes: TNIP1 (ABIN1), human, amino acids 417-509, the contiguous AHD1 and UBAN domains with their linker; In pET-28a(+); 15N-labelled for NMR; labelled with RED-tris-NTA dye on the His tag for MST; also called wildtype; ABIN1 AHD1-UBAN; source: E. coli Rosetta2 (DE3), purified (IMAC, SEC)
B2: AHD1-UBAN E425W (domain or fragment, human, UniProt Q15025 417-509, looked up)
chain: B1 chain with E9W
notes: TNIP1 (ABIN1), human, amino acids 417-509 with E425W; source: E. coli Rosetta2 (DE3), purified (IMAC, SEC)
B3: AHD1-UBAN P436W (domain or fragment, human, UniProt Q15025 417-509, looked up)
chain: B1 chain with P20W
notes: TNIP1 (ABIN1), human, amino acids 417-509 with P436W; source: E. coli Rosetta2 (DE3), purified (IMAC, SEC)
B4: AHD1-UBAN E425Q (domain or fragment, human, UniProt Q15025 417-509, looked up)
chain: B1 chain with E9Q
notes: TNIP1 (ABIN1), human, amino acids 417-509 with E425Q; source: E. coli Rosetta2 (DE3), purified (IMAC, SEC)
B5: AHD1-UBAN E444Q (domain or fragment, human, UniProt Q15025 417-509, looked up)
chain: B1 chain with E28Q
notes: TNIP1 (ABIN1), human, amino acids 417-509 with E444Q; source: E. coli Rosetta2 (DE3), purified (IMAC, SEC)
B6: AHD1-UBAN E444F (domain or fragment, human, UniProt Q15025 417-509, looked up)
chain: B1 chain with E28F
notes: TNIP1 (ABIN1), human, amino acids 417-509 with E444F; source: E. coli Rosetta2 (DE3), purified (IMAC, SEC)

Each binder was assayed against T1, Methionine-1-linked triubiquitin (UniProt P0CG48 1-76; P0CG48 1-76; P0CG48 1-76) (assay: MST; AHD1-UBAN labelled with RED-tris-NTA 2nd generation dye on its 6x-histidine tag; 16-step 2-fold serial dilution of M1-triUb from 40 µM to 610 pM; standard capillaries, Monolith X, MST power 40%, 23 °C; n = 2). Settings: both partners purified.
T1 construct: ubiquitin, unit 1 of 3, joined head to tail (M1-linked) on one chain; ubiquitin, unit 2 of 3, joined head to tail (M1-linked) on one chain; ubiquitin, unit 3 of 3, joined head to tail (M1-linked) on one chain; also called M1-triUb; M1-linked triubiquitin; source: bacterial production, purified (IMAC, SEC)
T1 sequence (P0CG48 1-228, one chain of several): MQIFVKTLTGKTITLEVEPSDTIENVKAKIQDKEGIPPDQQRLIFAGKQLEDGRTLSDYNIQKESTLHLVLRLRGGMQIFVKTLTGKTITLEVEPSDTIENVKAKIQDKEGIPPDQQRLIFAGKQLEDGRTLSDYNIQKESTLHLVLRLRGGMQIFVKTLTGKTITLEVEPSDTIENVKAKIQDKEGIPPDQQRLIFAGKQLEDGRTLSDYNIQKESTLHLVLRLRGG

Row | Binder | Kd
1 | B1 | 3.85 ± 0.89 µM
2 | B2 | 7.41 ± 2.28 µM
3 | B3 | 8.38 ± 0.77 µM

The binders below were run against T1, Methionine-1-linked triubiquitin (assay: far-UV circular dichroism difference spectra; 1:1 molar mixture, each protein at 10 µM, 50 mM sodium phosphate pH 8.0, room temperature; compared with the mathematical average of the two separate spectra). Settings: both partners purified.

Row | Binder | binding result
4 | B4 | binds
5 | B5 | binds
6 | B6 | binds
